Source: PMC11070302 (Drug resistance updates : reviews and commentaries in …, 2024)

Molecular target: the molecule itself
Assay: non-reducing SDS-PAGE and protein staining

B1: PEPD^G278D, a recombinant and enzymatically inactive mutant of human peptidase D (enzyme, UniProt P12955 1-493, looked up)
chain: MAAATGPSFWLGNETLKVPLALFALNRQRLCERLRKNPAVQAGSIVVLQGGEETQRYCTDTGVLFRQESFFHWAFGVTEPGCYGVIDVDTGKSTLFVPRLPASHATWMGKIHSKEHFKEKYAVDDVQYVDEIASVLTSQKPSVLLTLRGVNTDSGSVCREASFDGISKFEVNNTILHPEIVECRVFKTDMELEVLRYTNKISSEAHREVMKAVKVGMKEYELESLFEHYCYSRGGMRHSSYTCICGSGENSAVLHYGHAGAPNDRTIQNGDMCLFDMDGEYYCFASDITCSFPANGKFTADQKAVYEAVLRSSRAVMGAMKPGVWWPDMHRLADRIHLEELAHMGILSGSVDAMVQAHLGAVFMPHGLGHFLGIDVHDVGGYPEGVERIDEPGLRSLRTARHLQPGMVLTVEPGIYFIDHLLDEALADPARASFLNREVLQRFRGFGGVRIEEDVVVTDSGIELLTCVPRTVEEIEACMAGCDKAFTPFSGPK
stoichiometry N: 2
